Numbering of substitutions follows the chain as printed. Where two headings read alike, the source gives them in different places.

Common to all, as to experiment: SPR
Experiment [1] deals with human MMP-12 (human).
Experiment [2] concerns the target human MMP-12 (human). This is another data set of the same source.
Experiment [3] deals with mouse MMP-12 (mouse).
Sequence of mouse MMP-12 (mouse) (chain, as listed by the source): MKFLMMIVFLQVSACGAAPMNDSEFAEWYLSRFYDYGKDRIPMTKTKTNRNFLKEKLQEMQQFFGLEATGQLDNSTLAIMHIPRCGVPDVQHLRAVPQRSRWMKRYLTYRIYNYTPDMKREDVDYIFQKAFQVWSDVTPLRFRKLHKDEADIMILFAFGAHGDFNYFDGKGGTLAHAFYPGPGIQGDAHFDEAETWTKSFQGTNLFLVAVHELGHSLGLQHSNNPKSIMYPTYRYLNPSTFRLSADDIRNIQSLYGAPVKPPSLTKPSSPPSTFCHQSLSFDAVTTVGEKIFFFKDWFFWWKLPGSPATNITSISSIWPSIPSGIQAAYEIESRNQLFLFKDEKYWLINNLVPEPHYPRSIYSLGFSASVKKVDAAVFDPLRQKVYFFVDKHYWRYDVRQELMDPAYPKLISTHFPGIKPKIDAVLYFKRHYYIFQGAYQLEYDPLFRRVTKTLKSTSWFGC

Sequence of human MMP-12 (human) (B2R9X8 whole entry): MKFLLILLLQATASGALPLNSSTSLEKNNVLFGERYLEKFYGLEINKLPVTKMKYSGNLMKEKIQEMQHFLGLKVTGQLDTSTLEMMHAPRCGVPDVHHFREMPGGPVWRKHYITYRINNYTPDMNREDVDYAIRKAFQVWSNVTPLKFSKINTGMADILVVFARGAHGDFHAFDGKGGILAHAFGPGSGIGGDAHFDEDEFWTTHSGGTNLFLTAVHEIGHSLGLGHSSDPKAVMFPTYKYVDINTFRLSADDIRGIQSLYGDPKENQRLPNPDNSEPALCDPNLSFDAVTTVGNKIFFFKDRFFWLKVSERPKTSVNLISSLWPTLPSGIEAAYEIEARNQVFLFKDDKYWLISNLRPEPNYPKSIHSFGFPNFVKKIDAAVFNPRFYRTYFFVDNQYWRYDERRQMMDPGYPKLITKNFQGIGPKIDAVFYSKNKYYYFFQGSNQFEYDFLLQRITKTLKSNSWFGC

B1: 539B-M0121-E07 (antibody, V domains shown)
VH: EVQLLESGGGLVQPGGSLRLSCAASGFTFSWYGMHWVRQAPGKGLEWVSGIVSSGGETFYADSVKGRFTISRDNSKNTLYLQMNSLRAEDTAVYYCAKDIRGVFLSGLFDHWGRGTLVTVSS
VL: DIQMTQSPSSLSASVGDRVTITCRANQSIYTYLNWYQQKPGKAPELLIYAASSLQSGVPSRFSGSGSGTDFTLTISSLQPEDFATYYCQQAGIFGQGTKLEIK
For B1, the Kd (commonly a measure of binding affinity in units of concentration) in experiment [1] amounted to 0.197 nM.

B2: 539B-M0130-C12 (antibody, V domains shown)
VH: EVQLLESGGGLVQPGGSLRLSCAASGFTFSEYNMHWVRQAPGKGLEWVSGIVPSGGLTHYADSVKGRFTISRDNSKNTLYLQMNSLRAEDTAVYYCARDIRGAYSAGIFDYWGRGTLVTVSS
VL: B1 VL
In experiment [2], B2 registered a dissociation constant Kd of 0.68 nM.

B3: 539B-M0065-H05 IgG (antibody, V domains shown)
VH: B1 VH with W31Y, H35G, G50V, V52S, E57F, V103A, F104Y, L105S, H111Y
VL: B1 VL
As for B3, the Kd in experiment [2] came to 2.2 nM.

B4: 539B-M0118-F11 (antibody, V domains shown)
VH: B2 VH with E31Y, V52S, L57T, H59F, R101T, I108L, Y111L
VL: B1 VL
Consider B4, for which the dissociation constant (Kd) in experiment [1] was 1.17 nM. Besides, the dissociation rate constant (koff) (in general, a measure of how fast the partners let go of each other) in experiment [3] came to 0.000193 s⁻¹.

B5: 539B-M0131-A06 (antibody, V domains shown)
VH: B2 VH with E31W, N33W, V52S, L57M, H59M, R101V, A103P, I108L
VL: B1 VL
For B5, in experiment [3], the dissociation rate constant (koff) amounted to 4.84e-05 s⁻¹.

These data come from patent US20090311183 (published 2009).
